Results published in patent publication US6972319B1, “Pituitary adenylate cyclase activating peptide (PACAP)receptor 3 (R3) agonists and their pharmacological methods of use” (priority 1999, dated 2005).
No end group written: not given here.

B1: R3P12 (peptide)
peptide: HSDAVFTDNYTRLRKQLAAKKYLNDIKKGGT
B2: R3P127 (peptide)
peptide: HSDAVFTDNYTRLRKQMAAKKYLNSIQNKR
B3: R3P128 (peptide)
peptide: HSDAVFTDNYTRLRKQMAAKKYLNSIRNKR
B4: R3P129 (peptide)
peptide: HSDAVFTDNYTRLRKQMAAKKYLNSISNKR
B5: R3P130 (peptide)
peptide: HSDAVFTDNYTRLRKQMAAKKYLNSITNKR
B6: R3P131 (peptide)
peptide: HSDAVFTDNYTRLRKQMAAKKYLNSIVNKR
B7: R3P132 (peptide)
peptide: HSDAVFTDNYTRLRKQMAAKKYLNSIWNKR
B8: R3P134 (peptide)
peptide: HSDAVFTDNYTRLRKQMAAKKYLNSIKNAR
B9: R3P136 (peptide)
peptide: HSDAVFTDNYTRLRKQMAAKKYLNSIKNDR
B10: R3P137 (peptide)
peptide: HSDAVFTDNYTRLRKQMAAKKYLNSIKNER
B11: R3P13 (peptide)
peptide: HSDAVFTDNYTRLRKQLAAKKYLNDIKK-NH2
B12: R3P139 (peptide)
peptide: HSDAVFTDNYTRLRKQMAAKKYLNSIKNGR
B13: R3P140 (peptide)
peptide: HSDAVFTDNYTRLRKQMAAKKYLNSIKNHR
B14: R3P141 (peptide)
peptide: HSDAVFTDNYTRLRKQMAAKKYLNSIKNIR
B15: R3P142 (peptide)
peptide: HSDAVFTDNYTRLRKQMAAKKYLNSIKNLR
B16: R3P143 (peptide)
peptide: HSDAVFTDNYTRLRKQMAAKKYLNSIKNMR
B17: R3P144 (peptide)
peptide: HSDAVFTDNYTRLRKQMAAKKYLNSIKNNR
B18: R3P145 (peptide)
peptide: HSDAVFTDNYTRLRKQMAAKKYLNSIKNPR
B19: R3P146 (peptide)
peptide: HSDAVFTDNYTRLRKQMAAKKYLNSIKNQR
B20: R3P147 (peptide)
peptide: HSDAVFTDNYTRLRKQMAAKKYLNSIKNRR
B21: R3P148 (peptide)
peptide: HSDAVFTDNYTRLRKQMAAKKYLNSIKNSR
B22: R3P14 (peptide)
peptide: HSDAVFTDNYTRLRKQMAVKKYLNDLKKGGT
B23: R3P149 (peptide)
peptide: HSDAVFTDNYTRLRKQMAAKKYLNSIKNTR
B24: R3P150 (peptide)
peptide: HSDAVFTDNYTRLRKQMAAKKYLNSIKNVR
B25: R3P153 (peptide)
peptide: HSDAVFTDNYTRLRKQMAAKKYLNSIKNKA
B26: R3P155 (peptide)
peptide: HSDAVFTDNYTRLRKQMAAKKYLNSIKNKD
B27: R3P156 (peptide)
peptide: HSDAVFTDNYTRLRKQMAAKKYLNSIKNKE
B28: R3P157 (peptide)
peptide: HSDAVFTDNYTRLRKQMAAKKYLNSIKNKF
B29: R3P158 (peptide)
peptide: HSDAVFTDNYTRLRKQMAAKKYLNSIKNKG
B30: R3P159 (peptide)
peptide: HSDAVFTDNYTRLRKQMAAKKYLNSIKNKH
B31: R3P160 (peptide)
peptide: HSDAVFTDNYTRLRKQMAAKKYLNSIKNKI
B32: R3P161 (peptide)
peptide: HSDAVFTDNYTRLRKQMAAKKYLNSIKNKK
B33: R3P19 (peptide)
peptide: HSDAVFTENYTKLRKQLAAKKYLNDLKKGGTSWCEPGWCR
B34: R3P163 (peptide)
peptide: HSDAVFTDNYTRLRKQMAAKKYLNSIKNKM
B35: R3P164 (peptide)
peptide: HSDAVFTDNYTRLRKQMAAKKYLNSIKNKN
B36: R3P20 (peptide)
peptide: HSDAVFTDNYTRLRKQMAAKKYLNDIKKGGT
B37: R3P21 (peptide)
peptide: HSDAVFTDNYTRLRKQLAVKKYLNDIKKGGT
B38: R3P22 (peptide)
peptide: HSDAVFTDNYTRLRKQLAAKKYLNSIKKGGT
B39: R3P25 (peptide)
peptide: HSDAVFTDNYTRLRKQLAVKKYLNSIKKGGT

Target: T1, PACAP-R3 (human, UniProt P41587 24-438)
T1 sequence (looked up): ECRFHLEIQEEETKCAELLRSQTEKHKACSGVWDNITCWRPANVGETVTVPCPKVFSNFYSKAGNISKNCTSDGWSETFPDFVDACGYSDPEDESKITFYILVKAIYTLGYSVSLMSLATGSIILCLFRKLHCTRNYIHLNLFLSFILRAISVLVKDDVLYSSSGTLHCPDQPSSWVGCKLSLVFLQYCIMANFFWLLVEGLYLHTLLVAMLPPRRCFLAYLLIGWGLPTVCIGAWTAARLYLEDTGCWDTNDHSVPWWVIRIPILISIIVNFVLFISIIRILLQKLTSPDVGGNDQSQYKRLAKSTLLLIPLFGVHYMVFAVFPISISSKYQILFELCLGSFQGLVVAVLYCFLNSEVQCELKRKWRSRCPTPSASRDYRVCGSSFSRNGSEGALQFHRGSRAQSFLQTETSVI
Assay: cell-based or functional assay

| Binder | R3 EC50 | R3 Selectivity |
| --- | --- | --- |
| B1 | 0.5 nM | > 200 |
| B2 | 0.5 nM | 600 |
| B3 | 0.3 nM | 200 |
| B4 | 1 nM | 50 |
| B5 | 1 nM | 40 |
| B6 | 0.3 nM | 70 |
| B7 | 0.2 nM | 50 |
| B8 | 0.4 nM | – |
| B9 | 0.3 nM | 70 |
| B10 | 0.3 nM | 100 |
| B11 | 5 nM | 33 |
| B12 | 0.4 nM | 50 |
| B13 | 0.3 nM | 50 |
| B14 | 0.2 nM | 100 |
| B15 | 0.2 nM | 30 |
| B16 | 0.2 nM | 30 |
| B17 | 3 nM | 100 |
| B18 | 0.5 nM | 100 |
| B19 | 0.3 nM | 100 |
| B20 | 0.2 nM | 500 |

| Binder | R3 EC50 | R3 Selectivity |
| --- | --- | --- |
| B21 | 0.3 nM | 100 |
| B22 | 17 nM | 3 |
| B23 | 0.5 nM | 80 |
| B24 | 0.8 nM | 50 |
| B25 | 0.2 nM | 200 |
| B26 | 0.4 nM | 100 |
| B27 | 1 nM | 100 |
| B28 | 0.3 nM | 170 |
| B29 | 0.07 nM | 90 |
| B30 | 0.5 nM | 400 |
| B31 | 0.2 nM | 500 |
| B32 | 0.2 nM | 300 |
| B33 | 1.4 nM | 30 |
| B34 | 0.2 nM | – |
| B35 | 0.3 nM | 300 |
| B36 | 1.4 nM | 230 |
| B37 | 0.3 nM | 60 |
| B38 | 1.6 nM | 24 |
| B39 | 0.7 nM | 20 |
